Source: PMC11079029, “Intramolecular autoinhibition regulates the selectivity of PRPF40A tandem WW domains for proline-rich motifs” (Nature Communications, 2024)

B1: ATAD3A (protein, UniProt Q9NVI7 2-586, looked up)
ATPase family AAA …: SWLFGINKGPKGEGAGPPPPLPPAQPGAEGGGDRGLGDRPAPKDKWSNFDPTGLERAAKAARELEHSRYAKDALNLAQMQEQTLQLEQQSKLKEYEAAVEQLKSEQIRAQAEERRKTLSEETRQHQARAQYQDKLARQRYEDQLKQQQLLNEENLRKQEESVQKQEAMRRATVEREMELRHKNEMLRVEAEARARAKAERENADIIREQIRLKAAEHRQTVLESIRTAGTLFGEGFRAFVTDWDKVTATVAGLTLLAVGVYSAKNATLVAGRFIEARLGKPSLVRETSRITVLEALRHPIQVSRRLLSRPQDALEGVVLSPSLEARVRDIAIATRNTKKNRSLYRNILMYGPPGTGKTLFAKKLALHSGMDYAIMTGGDVAPMGREGVTAMHKLFDWANTSRRGLLLFVDEADAFLRKRATEKISEDLRATLNAFLYRTGQHSNKFMLVLASNQPEQFDWAINDRINEMVHFDLPGQEERERLVRMYFDKYVLKPATEGKQRLKLAQFDYGRKCSEVARLTEGMSGREIAQLAVSWQATAYASEDGVLTEAMMDTRVQDAVQQHQQKMCWLKAEGPGRGDEPSPS
B2: RBM17 (protein, UniProt Q96I25 2-401, looked up)
Splicing factor 45: SLYDDLGVETSDSKTEGWSKNFKLLQSQLQVKKAALTQAKSQRTKQSTVLAPVIDLKRGGSSDDRQIVDTPPHVAAGLKDPVPSGFSAGEVLIPLADEYDPMFPNDYEKVVKRQREERQRQRELERQKEIEEREKRRKDRHEASGFARRPDPDSDEDEDYERERRKRSMGGAAIAPPTSLVEKDKELPRDFPYEEDSRPRSQSSKAAIPPPVYEEQDRPRSPTGPSNSFLANMGGTVAHKIMQKYGFREGQGLGKHEQGLSTALSVEKTSKRGGKIIVGDATEKDASKKSDSNPLTEILKCPTKVVLLRNMVGAGEVDEDLEVETKEECEKYGKVGKCVIFEIPGAPDDEAVRIFLEFERVESAIKAVVDLNGRYFGGRVVKACFYNLDKFRVLDLAEQV
B3: SF3B2 (protein, UniProt Q13435 1-895, looked up)
Splicing factor 3B subunit 2: MATEHPEPPKAELQLPPPPPPGHYGAWAAQELQAKLAEIGAPIQGNREELVERLQSYTRQTGIVLNRPVLRGEDGDKAAPPPMSAQLPGIPMPPPPLGLPPLQPPPPPPPPPPGLGLGFPMAHPPNLGPPPPLRVGEPVALSEEERLKLAQQQAALLMQQEERAKQQGDHSLKEHELLEQQKRAAVLLEQERQQEIAKMGTPVPRPPQDMGQIGVRTPLGPRVAAPVGPVGPTPTVLPMGAPVPRPRGPPPPPGDENREMDDPSVGPKIPQALEKILQLKESRQEEMNSQQEEEEMETDARSSLGQSASETEEDTVSVSKKEKNRKRRNRKKKKKPQRVRGVSSESSGDREKDSTRSRGSDSPAADVEIEYVTEEPEIYEPNFIFFKRIFEAFKLTDDVKKEKEKEPEKLDKLENSAAPKKKGFEEEHKDSDDDSSDDEQEKKPEAPKLSKKKLRRMNRFTVAELKQLVARPDVVEMHDVTAQDPKLLVHLKATRNSVPVPRHWCFKRKYLQGKRGIEKPPFELPDFIKRTGIQEMREALQEKEEQKTMKSKMREKVRPKMGKIDIDYQKLHDAFFKWQTKPKLTIHGDLYYEGKEFETRLKEKKPGDLSDELRISLGMPVGPNAHKVPPPWLIAMQRYGPPPSYPNLKIPGLNSPIPESCSFGYHAGGWGKPPVDETGKPLYGDVFGTNAAEFQTKTEEEEIDRTPWGELEPSDEESSEEEEEEESDEDKPDETGFITPADSGLITPGGFSSVPAGMETPELIELRKKKIEEAMDGSETPQLFTVLPEKRTATVGGAMMGSTHIYDMSTVMSRKGPAPELQGVEVALAPEELELDPMAMTQKYEEHVREQQAQVEKEDFSDMVAEHAAKQKQKKRKAQPQDSRGGSKKYKEFKF
B4: SF1 (protein, UniProt Q15637 2-639, looked up)
Splicing factor 1: ATGANATPLDFPSKKRKRSRWNQDTMEQKTVIPGMPTVIPPGLTREQERAYIVQLQIEDLTRKLRTGDLGIPPNPEDRSPSPEPIYNSEGKRLNTREFRTRKKLEEERHNLITEMVALNPDFKPPADYKPPATRVSDKVMIPQDEYPEINFVGLLIGPRGNTLKNIEKECNAKIMIRGKGSVKEGKVGRKDGQMLPGEDEPLHALVTANTMENVKKAVEQIRNILKQGIETPEDQNDLRKMQLRELARLNGTLREDDNRILRPWQSSETRSITNTTVCTKCGGAGHIASDCKFQRPGDPQSAQDKARMDKEYLSLMAELGEAPVPASVGSTSGPATTPLASAPRPAAPANNPPPPSLMSTTQSRPPWMNSGPSESRPYHGMHGGGPGGPGGGPHSFPHPLPSLTGGHGGHPMQHNPNGPPPPWMQPPPPPMNQGPHPPGHHGPPPMDQYLGSTPVGSGVYRLHQGKGMMPPPPMGMMPPPPPPPSGQPPPPPSGPLPPWQQQQQQPPPPPPPSSSMASSTPLPWQQNTTTTTTSAGTGSIPPWQQQQAAAAASPGAPQMQGNPTMVPLPPGVQPPLPPGAPPPPPPPPPGSAGMMYAPPPPPPPPMDPSNFVTMMGMGVAGMPPFGMPPAPPPPPPQN
B5: SF3B3 (protein, UniProt Q15393 1-1217, looked up)
Splicing factor 3B subunit 3: MFLYNLTLQRATGISFAIHGNFSGTKQQEIVVSRGKILELLRPDPNTGKVHTLLTVEVFGVIRSLMAFRLTGGTKDYIVVGSDSGRIVILEYQPSKNMFEKIHQETFGKSGCRRIVPGQFLAVDPKGRAVMISAIEKQKLVYILNRDAAARLTISSPLEAHKANTLVYHVVGVDVGFENPMFACLEMDYEEADNDPTGEAAANTQQTLTFYELDLGLNHVVRKYSEPLEEHGNFLITVPGGSDGPSGVLICSENYITYKNFGDQPDIRCPIPRRRNDLDDPERGMIFVCSATHKTKSMFFFLAQTEQGDIFKITLETDEDMVTEIRLKYFDTVPVAAAMCVLKTGFLFVASEFGNHYLYQIAHLGDDDEEPEFSSAMPLEEGDTFFFQPRPLKNLVLVDELDSLSPILFCQIADLANEDTPQLYVACGRGPRSSLRVLRHGLEVSEMAVSELPGNPNAVWTVRRHIEDEFDAYIIVSFVNATLVLSIGETVEEVTDSGFLGTTPTLSCSLLGDDALVQVYPDGIRHIRADKRVNEWKTPGKKTIVKCAVNQRQVVIALTGGELVYFEMDPSGQLNEYTERKEMSADVVCMSLANVPPGEQRSRFLAVGLVDNTVRIISLDPSDCLQPLSMQALPAQPESLCIVEMGGTEKQDELGERGSIGFLYLNIGLQNGVLLRTVLDPVTGDLSDTRTRYLGSRPVKLFRVRMQGQEAVLAMSSRSWLSYSYQSRFHLTPLSYETLEFASGFASEQCPEGIVAISTNTLRILALEKLGAVFNQVAFPLQYTPRKFVIHPESNNLIIIETDHNAYTEATKAQRKQQMAEEMVEAAGEDERELAAEMAAAFLNENLPESIFGAPKAGNGQWASVIRVMNPIQGNTLDLVQLEQNEAAFSVAVCRFSNTGEDWYVLVGVAKDLILNPRSVAGGFVYTYKLVNNGEKLEFLHKTPVEEVPAAIAPFQGRVLIGVGKLLRVYDLGKKKLLRKCENKHIANYISGIQTIGHRVIVSDVQESFIWVRYKRNENQLIIFADDTYPRWVTTASLLDYDTVAGADKFGNICVVRLPPNTNDEVDEDPTGNKALWDRGLLNGASQKAEVIMNYHVGETVLSLQKTTLIPGGSESLVYTTLSGGIGILVPFTSHEDHDFFQHVEMHLRSEHPPLCGRDHLSFRSYYFPVKNVIDGDLCEQFNSMEPNKQKNVSEELDRTPPEVSKKLEDIRTRYAF

test system: GFP-tagged PRPF40A-Nter-MUT; assay: SILAC GFP-immunoprecipitation with quantitative mass spectrometry, mutant construct; assay type: binding, human (Hela cells); conditions: quantitative MS, Hela cells, protein by gene name
Protocol: The PRPF40A N-terminal region (isoform 2, residues 1-221) was PCR-amplified from RPE1 cDNA (ATCC, Cat# CRL-4000) cDNA. The sequence was amplified in two fragments and both fragments were combined by overhang. All PCRs were carried out using Q5 Polymerase (NEB) according to manufacturer’s protocol. The resulting PRPF40A N-terminal region was cloned into a GFP-expressing pcDNA5 vector (see pcDNA5 GFP vector in ref. [28]) using Q5 Site-Directed Mutagenesis Kit (NEB). Nter-MUT, containing the PPVP/PALPP motifs changed to AAAA/AAAAA, was obtained by mutating the N-ter-WW12-containing plasmid with Q5 site-directed mutagenesis. Plasmids were transformed into DH5alpha chemically competent cells. After culturing, DNA isolation was performed with either ZymoPURE Plasmid Miniprep Kit (Zymo Research) or QIAGEN Plasmid Plus Midi Kit (Qiagen). The sequence was confirmed by Sanger Sequencing (GATC Eurofins). All used oligonucleotides are shown in Supplementary Table 6.
Hela cells (ATCC, Cat# CCL-2, RRID:CVCL_0030) were cultured in DMEM SILAC medium (Thermo Fisher) supplemented with 10% filtered FBS (Sigma-Aldrich) and 1% penicillin-streptomycin (Thermo-Fisher). The SILAC medium contains either light (Arg0, Lys0), medium (Arg6, Lys4) or heavy (Arg10, Lys8) isotopes (Cambridge Isotopes Laboratories). Hela cells were cultivated for 14 days in SILAC medium to assure sufficient isotope incorporation. For transfection, 7 × 10^6 Hela cells were seeded in a 15 cm culture dish in 20 ml of respective SILAC medium and grown for 24 h. The cells were then transfected with 20 µg of plasmids expressing either GFP (Control), GFP-tagged N-ext-WW12 or GFP-tagged-N-ext-WW12-MUT utilizing 64 µl FuGENE (Promega) (ratio 1:3.2), according to manufacturer’s protocol.
24 h post-transfection, cells were washed twice in ice-cold PBS and harvested in 1 ml mRIPA buffer (50 mM Tris, 150 mM NaCl, 1 mM EDTA, 1% NP-40, 0.1% Na-deoxycholate), supplemented with 2 µl Turbo-DNase (Thermo Fisher) and 3 µl protease-inhibitor cocktail cOmplete (Sigma-Aldrich). Cell lysates were cleared by centrifugation at 16,000 × g, 4 °C, 15 min and concentration was measured using Pierce BCA Protein Assay kit (Thermo Scientific). The expressed constructs were pulled down by incubating 2.5 mg of lysate with 20 μl GFP-nanobody agarose beads (ChromoTek, GTA-20) for 1 h at 4 °C under constant agitation. Subsequently, beads were washed three times with mRIPA buffer without supplements, then eluted in 1X NuPAGE LDS sample buffer (Thermo Scientific). To detach the proteins from the beads, the eluate was heated to 70 °C for 10 min To evaluate the success of the immunoprecipitation, input (1%) and IP samples were analyzed on a NuPAGE 4–12% Bis-Tris-Acrylamide gel (Thermo Fisher) using NuPAGE MOPS SDS running buffer (Thermo Fisher). Proteins were stained using Sypro Ruby protein gel stain (Thermo Fisher) according to manufacturer’s protocol.
The eluted proteins of three SILAC states (light, medium, heavy) were combined. The proteins were then reduced in DTT, alkylated in iodoacetamide, and purified using the SP3 paramagnetic bead approach. This was followed by overnight enzymatic digestion using trypsin (1 µg per sample) in 50 mM ammonium bicarbonate at 37 °C. The peptide solution was then purified by solid phase extraction in C18 StageTips[99].
Peptides were separated by online reverse phase liquid chromatography using the EASY-nLC 1000 system (Thermo Scientific) in a 30-cm analytical column (inner diameter: 75 μm; heated at 50 °C) packed in-house with ReproSil-Pur 120 C18-AQ 1.9-μm beads (Dr. Maisch GmbH). The gradient separation was performed through a 105-min non-linear gradient of 1.6–32% acetonitrile with 0.1% formic acid at a nanoflow rate of 225 nl/min. The eluted peptides were sprayed directly by electrospray ionization into a Q Exactive Plus Orbitrap mass spectrometer (Thermo Scientific). […]

Molecule | Immunoprecipitation enrichment MUT vs WT, log2 FC
B1 | 1.016
B2 | 1.293
B3 | 0.8966
B4 | 0.9625
B5 | 0.8966
